Test results: patent US7521047 (GPC BIOTECH, dated 2009)
Changes are numbered by the printed parent chain.

T1: human MHC class II DR protein (DRA*0101/DRB1*0401), purified from PRIESS cells (human, UniProt P01903 26-254; P01911 30-266, limits assumed)
T1 construct: mature; also called HLA-DR protein; MHCII
T1 MHC II alpha: not shown
T1 MHC II beta: not shown

T2: HLA-DR (DRA*0101/DRB1*0401) on PRIESS cells (human, UniProt P01903 26-254; P01911 30-266)
T2 MHC II alpha: not shown
T2 MHC II beta: not shown

B1: MS-GPC-8-6-47 Fab (Fab, V domains shown)
VH: QVQLKESGPALVKPTQTLTLTCTFSGFSLSTSGVGVGWIRQPPGKALEWLALIDWDDDKYYSTSLKTRLTISKDTSKNQVVLTMTNMDPVDTATYYCARSPRYRGAFDYWGQGTLVTVSS
VL: DIVLTQPPSVSGAPGQRVTISCSGSESNIGSNYVSWYQQLPGTAPKLLIYDNNQRPSGVPDRFSGSKSGTSASLAITGLQSEDEADYYCQSYDYDHYVFGGGTKLTVLG
notes: Fab: VH-CH1 with FLAG tag and STREP tag II, VL-CL; VH residue 1 is Q in Fab
B2: MS-GPC-8-27-10 Fab (Fab, V domains shown)
VH: B1 VH
VL: B1 VL with S31A, S35N, Y94M, D95N, H96V, Y97H
notes: as for B1
B3: MS-GPC-8-6-27 Fab (Fab, V domains shown)
VH: B1 VH
VL: B1 VL with E26D, S31A, S35T
notes: as for B1
B4: MS-GPC-8-6-19 Fab (Fab, V domains shown)
VH: B1 VH
VL: B1 VL with S35A
notes: as for B1
B5: MS-GPC-8-6-13 Fab (Fab, V domains shown)
VH: B1 VH
VL: B1 VL with S31A, S35T
notes: Fab: VH-CH1 with FLAG tag and STREP tag II, VL-CL; VH residue 1 is Q in Fab; also called 305D3
B6: MS-GPC-8-27-7 Fab (Fab, V domains shown)
VH: B1 VH
VL: B1 VL with S31N, S35G, Y94M, D95N, H96V, Y97H
notes: as for B1
B7: MS-GPC-8-6-45 Fab (Fab, V domains shown)
VH: B1 VH
VL: B1 VL with S27P, S35F
notes: as for B1
B8: MS-GPC-8-6-2 Fab (Fab, V domains shown)
VH: B1 VH
VL: B1 VL with S35H
notes: as for B1
B9: MS-GPC-8-1 Fab (Fab, V domains shown)
VH: B1 VH
VL: B1 VL with E26S, Y94F, D95S
notes: as for B1
B10: MS-GPC-8-9 Fab (Fab, V domains shown)
VH: B1 VH
VL: B1 VL with E26S, Y94I, D95Q, H96L, Y97H
notes: as for B1
B11: MS-GPC-8-18 Fab (Fab, V domains shown)
VH: B1 VH
VL: B1 VL with E26S, Y94F, D95S, H96I
notes: as for B1
B12: MS-GPC-8-10-57 Fab (Fab, V domains shown)
VH: B1 VH
VL: B1 VL with S31N, S35Q, Y94L, D95I, H96R, Y97H
notes: Fab: VH-CH1 with FLAG tag and STREP tag II, VL-CL; VH residue 1 is Q in Fab; also called 1C7277
B13: MS-GPC-8-6 IgG (antibody, V domains shown)
VH: B1 VH
VL: B1 VL with E26S
B14: MS-GPC-8-6-2 IgG (antibody, V domains shown)
VH: B1 VH
VL: B1 VL with S35H
B15: L243 (antibody, V domains shown)
VH: QIQLVQSGPELKKPGETVKISCKASGFTFTNYGMNWVKQAPGKGLKWMGWINTYTREPTYADDFKGRFAFSLETSASTAYLQINNLKNEDTAKYFCARDITAVVPTGFDYWGQGTTLTVSS
VL: DIQMTQSPASLSVSVGETVTITCRASENIYSNLAWYRQKQGKSPQLLVFAASNLADGVPSRFSGSGSGTQYSLKINSLQSEDFGDYYCQHFWTTPWAFGGGTNLEIK
B16: MS-GPC-8-27 Fab (Fab, V domains shown)
VH: B1 VH
VL: B1 VL with E26S, Y94M, D95N, H96V, Y97H
notes: as for B1
B17: MS-GPC-8-10 Fab (Fab, V domains shown)
VH: B1 VH
VL: B1 VL with E26S, Y94L, D95I, H96R, Y97H
notes: as for B1

Molecular target: T1, human MHC class II DR protein …
Assay: SPR (BIAcore), MHCII on CM5 chip

| Kd [nM] | koff [s⁻¹] | kon [M⁻¹ s⁻¹] | Binder |
| --- | --- | --- | --- |
| 3.2 | 0.00062 | 200000 | B1 |
| 3 | 0.00053 | 180000 | B2 |
| 6.3 | 0.0011 | 180000 | B3 |
| 9 | 0.001 | 110000 | B4 |
| 3 | 0.00055 | 190000 | B5 |
| 3.3 | 0.00057 | 170000 | B6 |
| 8.6 | 0.00103 | 120000 | B7 |
| 7.6 | 0.00094 | 120000 | B8 |

Molecular target: T1, human MHC class II DR protein …
Assay: SPR (BIAcore), chip density 4000 RU MHCII

| Kd [nM] | koff [s⁻¹] | kon [M⁻¹ s⁻¹] | Binder |
| --- | --- | --- | --- |
| 108 | 0.0209 | 193000 | B9 |
| 90.1 | 0.0166 | 185000 | B10 |
| 78.3 | 0.0083 | 106000 | B11 |

Molecular target: T1, human MHC class II DR protein …
Assay: ELISA, coated antigen, Fab 100 ng/well, read at 370 nm
Method: (§1) After washing in PBS the anti-human IgG F(ab')_2-peroxidase-conjugate at a 1:10,000 dilution in TBS (supplemented with 5% w/v non-fat drymilk/0.05% v/v Tween 20) was added to each well for 1 h. Final washes were carried out in PBS followed the addition the substrate POD (Roche).

| ELISA signal | Binder |
| --- | --- |
| 1.4 | B1 |
| 1.49 | B2 |
| 1.3 | B3 |
| 1.26 | B12 |
| 1.47 | B5 |
| 1.55 | B6 |

Molecular target: T3, lysozyme
T3 construct: negative control antigen
Assay: as above
Method: as §1

T3 sequence (P00698 19-147): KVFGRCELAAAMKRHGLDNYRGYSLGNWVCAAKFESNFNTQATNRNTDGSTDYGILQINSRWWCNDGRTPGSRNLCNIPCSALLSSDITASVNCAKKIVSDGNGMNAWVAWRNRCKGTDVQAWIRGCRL

| ELISA signal | Binder |
| --- | --- |
| 0.013 | B1 |
| 0.006 | B3 |
| 0.014 | B12 |

Molecular target: T4, BSA (bovine, UniProt P02769 25-607)
T4 construct: negative control antigen; also called bovine serum albumine
Assay: as above
Method: as §1

T4 sequence (P02769 25-607 limits assumed): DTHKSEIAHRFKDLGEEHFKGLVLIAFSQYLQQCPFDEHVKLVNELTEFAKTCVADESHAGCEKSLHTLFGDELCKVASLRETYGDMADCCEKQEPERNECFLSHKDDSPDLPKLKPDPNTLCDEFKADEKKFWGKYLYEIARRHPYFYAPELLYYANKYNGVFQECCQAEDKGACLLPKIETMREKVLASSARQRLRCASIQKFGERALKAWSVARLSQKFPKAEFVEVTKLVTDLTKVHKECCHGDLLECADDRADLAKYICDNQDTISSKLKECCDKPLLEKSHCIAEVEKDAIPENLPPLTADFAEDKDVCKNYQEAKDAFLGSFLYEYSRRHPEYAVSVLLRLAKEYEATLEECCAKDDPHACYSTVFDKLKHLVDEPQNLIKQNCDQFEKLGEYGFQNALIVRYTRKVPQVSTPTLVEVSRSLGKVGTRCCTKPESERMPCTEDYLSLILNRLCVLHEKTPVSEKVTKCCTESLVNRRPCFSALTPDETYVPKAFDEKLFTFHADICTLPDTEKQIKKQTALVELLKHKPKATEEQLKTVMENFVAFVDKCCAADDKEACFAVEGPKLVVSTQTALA

| ELISA signal | binding result | Binder |
| --- | --- | --- |
| 0.008 | no binding (tested: 100 ng/well) | B1 |
| 0.003 | no binding (tested: 100 ng/well) | B3 |
| 0.003 | no binding (tested: 100 ng/well) | B12 |

Molecular target: chimeric 0401-IE class II molecule on cells of transgenic mice (human/murine chimera)
Assay: cell-based or functional assay

| IC50 of inhibition of IL-2 secretion from T-Hyb 1 cells | Maximum inhibition(%) of IL-2 secretion [%] | Binder |
| --- | --- | --- |
| 2.6 nM (half the concentration of the Fab) | 100 | B1 |
| 6.7 nM | 100 | B13 |
| 3.6 nM | 100 | B14 |
| 7.3 nM (half the concentration of the Fab) | 100 | B2 |
| 3 nM (half the concentration of the Fab) | 100 | B3 |
| 5.3 nM (half the concentration of the Fab) | 100 | B4 |
| 2.9 nM (half the concentration of the Fab) | 100 | B12 |
| 2.1 nM (half the concentration of the Fab) | 100 | B5 |
| 5.9 nM (half the concentration of the Fab) | 100 | B6 |
| 4.7 nM (half the concentration of the Fab) | 100 | B8 |

Molecular target: T2, HLA-DR (DRA*0101/DRB1*0401) on PRIESS …
Assay: cell-based or functional assay

| Binder | EC50 of cell killing, cross-linked Fab, bivalent agent [nM] | EC50 of cell killing, mIgG [nM] |
| --- | --- | --- |
| B8 | 8 |  |
| B15 |  | 47 |

Molecular target: T1, human MHC class II DR protein …
Assay: SPR (BIAcore), MHCII on CM5 chip
Remark: another data set of the same source

| Kd [nM] | koff [s⁻¹] | kon [M⁻¹ s⁻¹] | Binder |
| --- | --- | --- | --- |
| 3.18 | 0.00062 | 197000 | B1 |
|  | 0.0066 |  | B16 |
| 3.01 | 0.00053 | 176000 | B2 |
| 6.3 | 0.0011 | 180000 | B3 |
| 8.74 | 0.00096 | 110000 | B4 |
| 108 | 0.0209 | 193000 | B9 |
| 90.1 | 0.0166 | 185000 | B10 |
| 3.3 | 0.00057 | 174000 | B6 |
| 8.63 | 0.00103 | 120000 | B7 |
| 7.61 | 0.00094 | 123000 | B8 |
|  | 0.007 |  | B17 |
| 78.3 | 0.0083 | 106000 | B11 |
